Ki data for six molecules are collected here from patent publication US20260015399A1 (Boehringer Ingelheim, published 2026).

This experiment addresses T1, human NPY2 receptor (human, UniProt P49146 1-381).
T1 construct: whole, on cells; also called hNPY2-R; hNPY2R
T1 sequence (looked up): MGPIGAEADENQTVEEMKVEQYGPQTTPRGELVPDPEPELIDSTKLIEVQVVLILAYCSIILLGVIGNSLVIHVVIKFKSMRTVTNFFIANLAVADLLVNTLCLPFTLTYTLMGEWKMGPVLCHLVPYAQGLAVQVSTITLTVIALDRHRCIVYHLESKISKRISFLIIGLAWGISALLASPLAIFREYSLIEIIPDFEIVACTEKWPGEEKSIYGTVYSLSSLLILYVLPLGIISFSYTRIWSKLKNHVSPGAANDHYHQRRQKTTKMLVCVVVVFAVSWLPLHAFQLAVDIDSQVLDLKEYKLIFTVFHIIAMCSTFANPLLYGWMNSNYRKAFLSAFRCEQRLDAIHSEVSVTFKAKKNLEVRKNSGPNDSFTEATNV
Nature of the experiment: RLB: displacement of 125I-PYY(1-36) from hNPY2R membranes. For orientation: In a radioligand displacement assay an active substance lowers the binding of a labelled ligand.

*1 amine or outer side, *2 acyl side, *3 side chain or, on linkers, in order; H or OH if unused. Side-chain parts run from the residue outwards. The star is where a group is joined. C18 diacid = O=C(O)CCCCCCCCCCCCCCCCC(=O)*; γGlu = O=C(O)[C@H](CCC(=O)[*:2])N[*:1]; Isovaleryl = CC(C)CC(=O)*; Ahx = NCCCCCC(=O)O

B1: Compound 48 (peptide)
peptide: Isovaleryl-APAK([Ahx-γGlu-C18 diacid])PEEAATPEELQRYYISLRHYYNWLTRQRY-NH2
SMILES: CC[C@H](C)[C@H](NC(=O)[C@H](Cc1ccc(O)cc1)NC(=O)[C@H](Cc1ccc(O)cc1)NC(=O)[C@H](CCCNC(=N)N)NC(=O)[C@H](CCC(N)=O)NC(=O)[C@H](CC(C)C)NC(=O)[C@H](CCC(=O)O)NC(=O)[C@H](CCC(=O)O)NC(=O)[C@@H]1CCCN1C(=O)[C@@H](NC(=O)[C@H](C)NC(=O)[C@H](C)NC(=O)[C@H](CCC(=O)O)NC(=O)[C@H](CCC(=O)O)NC(=O)[C@@H]1CCCN1C(=O)[C@H](CCCCNC(=O)CCCCCNC(=O)CC[C@H](NC(=O)CCCCCCCCCCCCCCCCC(=O)O)C(=O)O)NC(=O)[C@H](C)NC(=O)[C@@H]1CCCN1C(=O)[C@H](C)NC(=O)CC(C)C)[C@@H](C)O)C(=O)N[C@@H](CO)C(=O)N[C@@H](CC(C)C)C(=O)N[C@@H](CCCNC(=N)N)C(=O)N[C@@H](Cc1c[nH]cn1)C(=O)N[C@@H](Cc1ccc(O)cc1)C(=O)N[C@@H](Cc1ccc(O)cc1)C(=O)N[C@@H](CC(N)=O)C(=O)N[C@@H](Cc1c[nH]c2ccccc12)C(=O)N[C@@H](CC(C)C)C(=O)N[C@H](C(=O)N[C@@H](CCCNC(=N)N)C(=O)N[C@@H](CCC(N)=O)C(=O)N[C@@H](CCCNC(=N)N)C(=O)N[C@@H](Cc1ccc(O)cc1)C(N)=O)[C@@H](C)O
In general, Ki refers to a dissociation constant, usually derived from enzyme kinetics or from competition with a known ligand. On to B1, for which the Ki stood at 1.54 nM. This lies in the single-digit nanomolar range.

B2: Compound 51 (peptide)
peptide: Isovaleryl-APEK([Ahx-γGlu-C18 diacid])PEEDATPEELQRYYVQLRHYYNWLTRQRY-NH2
SMILES: CC(C)CC(=O)N[C@@H](C)C(=O)N1CCC[C@H]1C(=O)N[C@@H](CCC(=O)O)C(=O)N[C@@H](CCCCNC(=O)CCCCCNC(=O)CC[C@H](NC(=O)CCCCCCCCCCCCCCCCC(=O)O)C(=O)O)C(=O)N1CCC[C@H]1C(=O)N[C@@H](CCC(=O)O)C(=O)N[C@@H](CCC(=O)O)C(=O)N[C@@H](CC(=O)O)C(=O)N[C@@H](C)C(=O)N[C@H](C(=O)N1CCC[C@H]1C(=O)N[C@@H](CCC(=O)O)C(=O)N[C@@H](CCC(=O)O)C(=O)N[C@@H](CC(C)C)C(=O)N[C@@H](CCC(N)=O)C(=O)N[C@@H](CCCNC(=N)N)C(=O)N[C@@H](Cc1ccc(O)cc1)C(=O)N[C@@H](Cc1ccc(O)cc1)C(=O)N[C@H](C(=O)N[C@@H](CCC(N)=O)C(=O)N[C@@H](CC(C)C)C(=O)N[C@@H](CCCNC(=N)N)C(=O)N[C@@H](Cc1c[nH]cn1)C(=O)N[C@@H](Cc1ccc(O)cc1)C(=O)N[C@@H](Cc1ccc(O)cc1)C(=O)N[C@@H](CC(N)=O)C(=O)N[C@@H](Cc1c[nH]c2ccccc12)C(=O)N[C@@H](CC(C)C)C(=O)N[C@H](C(=O)N[C@@H](CCCNC(=N)N)C(=O)N[C@@H](CCC(N)=O)C(=O)N[C@@H](CCCNC(=N)N)C(=O)N[C@@H](Cc1ccc(O)cc1)C(N)=O)[C@@H](C)O)C(C)C)[C@@H](C)O
Turning to B2, the Ki is 2.59 nM.

B3: Compound 49 (peptide)
peptide: Isovaleryl-APEK([Ahx-γGlu-C18 diacid])PEEDATPEELQRYYVLLRHYYNWLTRQRY-NH2
SMILES: CC(C)CC(=O)N[C@@H](C)C(=O)N1CCC[C@H]1C(=O)N[C@@H](CCC(=O)O)C(=O)N[C@@H](CCCCNC(=O)CCCCCNC(=O)CC[C@H](NC(=O)CCCCCCCCCCCCCCCCC(=O)O)C(=O)O)C(=O)N1CCC[C@H]1C(=O)N[C@@H](CCC(=O)O)C(=O)N[C@@H](CCC(=O)O)C(=O)N[C@@H](CC(=O)O)C(=O)N[C@@H](C)C(=O)N[C@H](C(=O)N1CCC[C@H]1C(=O)N[C@@H](CCC(=O)O)C(=O)N[C@@H](CCC(=O)O)C(=O)N[C@@H](CC(C)C)C(=O)N[C@@H](CCC(N)=O)C(=O)N[C@@H](CCCNC(=N)N)C(=O)N[C@@H](Cc1ccc(O)cc1)C(=O)N[C@@H](Cc1ccc(O)cc1)C(=O)N[C@H](C(=O)N[C@@H](CC(C)C)C(=O)N[C@@H](CC(C)C)C(=O)N[C@@H](CCCNC(=N)N)C(=O)N[C@@H](Cc1c[nH]cn1)C(=O)N[C@@H](Cc1ccc(O)cc1)C(=O)N[C@@H](Cc1ccc(O)cc1)C(=O)N[C@@H](CC(N)=O)C(=O)N[C@@H](Cc1c[nH]c2ccccc12)C(=O)N[C@@H](CC(C)C)C(=O)N[C@H](C(=O)N[C@@H](CCCNC(=N)N)C(=O)N[C@@H](CCC(N)=O)C(=O)N[C@@H](CCCNC(=N)N)C(=O)N[C@@H](Cc1ccc(O)cc1)C(N)=O)[C@@H](C)O)C(C)C)[C@@H](C)O
Molecule B3 came in with a Ki of 11.6 nM.

B4: Compound 58 (peptide)
peptide: Isovaleryl-APEK([Ahx-γGlu-C18 diacid])PEEDATPEEVQRYYVSLRHYYNWLTRQRY-NH2
SMILES: CC(C)CC(=O)N[C@@H](C)C(=O)N1CCC[C@H]1C(=O)N[C@@H](CCC(=O)O)C(=O)N[C@@H](CCCCNC(=O)CCCCCNC(=O)CC[C@H](NC(=O)CCCCCCCCCCCCCCCCC(=O)O)C(=O)O)C(=O)N1CCC[C@H]1C(=O)N[C@@H](CCC(=O)O)C(=O)N[C@@H](CCC(=O)O)C(=O)N[C@@H](CC(=O)O)C(=O)N[C@@H](C)C(=O)N[C@H](C(=O)N1CCC[C@H]1C(=O)N[C@@H](CCC(=O)O)C(=O)N[C@@H](CCC(=O)O)C(=O)N[C@H](C(=O)N[C@@H](CCC(N)=O)C(=O)N[C@@H](CCCNC(=N)N)C(=O)N[C@@H](Cc1ccc(O)cc1)C(=O)N[C@@H](Cc1ccc(O)cc1)C(=O)N[C@H](C(=O)N[C@@H](CO)C(=O)N[C@@H](CC(C)C)C(=O)N[C@@H](CCCNC(=N)N)C(=O)N[C@@H](Cc1c[nH]cn1)C(=O)N[C@@H](Cc1ccc(O)cc1)C(=O)N[C@@H](Cc1ccc(O)cc1)C(=O)N[C@@H](CC(N)=O)C(=O)N[C@@H](Cc1c[nH]c2ccccc12)C(=O)N[C@@H](CC(C)C)C(=O)N[C@H](C(=O)N[C@@H](CCCNC(=N)N)C(=O)N[C@@H](CCC(N)=O)C(=O)N[C@@H](CCCNC(=N)N)C(=O)N[C@@H](Cc1ccc(O)cc1)C(N)=O)[C@@H](C)O)C(C)C)C(C)C)[C@@H](C)O
For the molecule B4, the Ki worked out at 3.46 nM.

B5: Compound 57 (peptide)
peptide: Isovaleryl-APAK([Ahx-γGlu-C18 diacid])PEEDATPEEAQRYYVSLRHYYNWLTRQRY-NH2
SMILES: CC(C)CC(=O)N[C@@H](C)C(=O)N1CCC[C@H]1C(=O)N[C@@H](C)C(=O)N[C@@H](CCCCNC(=O)CCCCCNC(=O)CC[C@H](NC(=O)CCCCCCCCCCCCCCCCC(=O)O)C(=O)O)C(=O)N1CCC[C@H]1C(=O)N[C@@H](CCC(=O)O)C(=O)N[C@@H](CCC(=O)O)C(=O)N[C@@H](CC(=O)O)C(=O)N[C@@H](C)C(=O)N[C@H](C(=O)N1CCC[C@H]1C(=O)N[C@@H](CCC(=O)O)C(=O)N[C@@H](CCC(=O)O)C(=O)N[C@@H](C)C(=O)N[C@@H](CCC(N)=O)C(=O)N[C@@H](CCCNC(=N)N)C(=O)N[C@@H](Cc1ccc(O)cc1)C(=O)N[C@@H](Cc1ccc(O)cc1)C(=O)N[C@H](C(=O)N[C@@H](CO)C(=O)N[C@@H](CC(C)C)C(=O)N[C@@H](CCCNC(=N)N)C(=O)N[C@@H](Cc1c[nH]cn1)C(=O)N[C@@H](Cc1ccc(O)cc1)C(=O)N[C@@H](Cc1ccc(O)cc1)C(=O)N[C@@H](CC(N)=O)C(=O)N[C@@H](Cc1c[nH]c2ccccc12)C(=O)N[C@@H](CC(C)C)C(=O)N[C@H](C(=O)N[C@@H](CCCNC(=N)N)C(=O)N[C@@H](CCC(N)=O)C(=O)N[C@@H](CCCNC(=N)N)C(=O)N[C@@H](Cc1ccc(O)cc1)C(N)=O)[C@@H](C)O)C(C)C)[C@@H](C)O
As for B5, the Ki stood at 2.07 nM.

B6: Compound 54 (peptide)
peptide: Isovaleryl-APEK([Ahx-γGlu-C18 diacid])PEEDATPEEAQRYYVSLRHYYNWLTRQRY-NH2
SMILES: CC(C)CC(=O)N[C@@H](C)C(=O)N1CCC[C@H]1C(=O)N[C@@H](CCC(=O)O)C(=O)N[C@@H](CCCCNC(=O)CCCCCNC(=O)CC[C@H](NC(=O)CCCCCCCCCCCCCCCCC(=O)O)C(=O)O)C(=O)N1CCC[C@H]1C(=O)N[C@@H](CCC(=O)O)C(=O)N[C@@H](CCC(=O)O)C(=O)N[C@@H](CC(=O)O)C(=O)N[C@@H](C)C(=O)N[C@H](C(=O)N1CCC[C@H]1C(=O)N[C@@H](CCC(=O)O)C(=O)N[C@@H](CCC(=O)O)C(=O)N[C@@H](C)C(=O)N[C@@H](CCC(N)=O)C(=O)N[C@@H](CCCNC(=N)N)C(=O)N[C@@H](Cc1ccc(O)cc1)C(=O)N[C@@H](Cc1ccc(O)cc1)C(=O)N[C@H](C(=O)N[C@@H](CO)C(=O)N[C@@H](CC(C)C)C(=O)N[C@@H](CCCNC(=N)N)C(=O)N[C@@H](Cc1c[nH]cn1)C(=O)N[C@@H](Cc1ccc(O)cc1)C(=O)N[C@@H](Cc1ccc(O)cc1)C(=O)N[C@@H](CC(N)=O)C(=O)N[C@@H](Cc1c[nH]c2ccccc12)C(=O)N[C@@H](CC(C)C)C(=O)N[C@H](C(=O)N[C@@H](CCCNC(=N)N)C(=O)N[C@@H](CCC(N)=O)C(=O)N[C@@H](CCCNC(=N)N)C(=O)N[C@@H](Cc1ccc(O)cc1)C(N)=O)[C@@H](C)O)C(C)C)[C@@H](C)O
In turn, B6 gave a Ki of 8.97 nM.
